Results: patent publication US8591913B2, “Methods of decreasing adipose tissue” (Toru Miyazaki, priority 2009, dated 2013)
“Also recorded” adds a separate entry of the source.

Legend:
[1] = tested on: 3T3-L1 preadipocytes; test: Differentiation of 3T3-L1 preadipocytes into mature adipocytes, oil-red-o staining; format: cell-based, mouse
Method: In order to examine how AIM produced by the macrophages infiltrating the adipose tissues works on surrounding adipocytes, an experiment in which AIM was loaded during a culture process of differentiating 3T3-L1 preadipocytes into the mature adipocytes was performed.
A recombinant mouse AIM protein and a recombinant human AIM protein were used as AIM. Those recombinant AIM proteins were prepared by culturing human-derived HEK293T cells transfected with a vector expressing mouse AIM or human AIM and isolating and purifying the protein from its culture supernatant. The same recombinant AIM proteins were also used as AIM in other examples shown below. AIM was loaded by adding AIM at a concentration of 5 μg/mL to the culture medium.
Differentiation induction (Induction) of the 3T3-L1 cells was initiated by first culturing the 3T3-L1 cells for 4 days (day −2 to day 2) to proliferate the cells (Cell proliferation) and subsequently culturing the cells in a culture medium containing insulin, dexamethasone (DEX), and isobutylmethylxanthine (IBMX) for 2 days (day 2 to day 4). The differentiation induction was further continued by culturing the cells in a culture medium containing insulin for 2 days (day 4 to day 6).
After the period of the differentiation induction (day 2 to day 6), the culture was continued in a culture medium not containing those differentiation-inducing factors. Then, the cells on the 10th day (day 12) after the initiation of the stimuli for differentiation induction were stained with oil-red-o, and the differentiation of the 3T3-L1 cells to mature adipocytes was observed.
In addition, using a FAS inhibitor (C75) in place of AIM, the FAS inhibitor at a concentration of 25 μM was loaded according to the schedules (d) and (f), and as was the case with the above-mentioned AIM, the cells were collected on the 2nd day (day 4: schedule (d)) and 10th day (day 12: schedule (f)) after the initiation of the differentiation induction, and the enzyme activity of FAS was measured.
FIG. 12A and FIG. 12B show the results of staining the cells with oil-red-o and analyzing the gene expression by RT-PCR on the 2nd day (day 4) after the initiation of the differentiation induction in the case of loading no AIM according to the schedule (a) (None), the case of loading AIM according to the schedule (d) (AIM (5 μg/mL)), and the case of loading the FAS inhibitor according to the schedule (d) (C75 (25 μM)), respectively.

[2] = tested on: mature adipocytes (differentiated 3T3-L1 cells); test: Induction of lipolysis in mature 3T3-L1 adipocytes (lipid droplets, glycerol and free fatty acid efflux); format: cell-based, mouse
Method: The effect of AIM on mature adipocytes was examined.
Then, the cells on the 10th day (day 12) after the initiation of the stimuli for differentiation induction were stained with oil-red-o. The number of cells having lipid droplets was counted. Further, the diameter of lipid droplets was measured in the cells having lipid droplets. For comparison, the number of the cells was counted and the diameter of lipid droplets was measured for the cells cultured in the above-mentioned schedules (a) and (d).
Further, the supernatant of the culture medium after the cells were cultured while loading AIM according to the schedule (e) was collected, and amounts of glycerol and free fatty acid (FFA) contained in the supernatant were measured by ELISA. For the comparison, the amounts of glycerol and free fatty acid in the culture supernatant obtained according to the schedule (a) were also measured.
In order to avoid adsorption of free fatty acid to albumin contained in the culture medium, the culture medium supplemented with 10% FBS (fetal bovine serum) was exchanged to a serum-free culture medium on the 10th day (day 12) after the initiation of the differentiation induction, further the cells were cultured in the serum-free culture medium for 6 hours, and subsequently the amounts of glycerol and free fatty acid contained in the supernatant of the serum-free culture medium were measured.
FIG. 7A and FIG. 7B illustrate the evaluation results of the number (per 10^4 μm^2) of cells having lipid droplets (Droplet (+) cells) and the relative diameter of lipid droplets (%) obtained according to the schedules (a), (d), and (e) (Exp. a, d, and e), respectively. The relative diameter of lipid droplets illustrated in FIG. 7B was calculated by defining the diameter of lipid droplets in the cells obtained according to the schedule (a) without AIM loading as 100%. FIG. 8A and FIG. 8B illustrate the concentration of glycerol (Glycerol Efflux, mM) and the concentration of free fatty acid (FFA Efflux, ×10 mM) in the culture medium obtained according to the schedules (a) and (e) (Exp. a and e), respectively.
In addition, FIG. 13A and FIG. 13B illustrate the results of measuring the glycerol concentration (glycerol efflux, mM) and the free fatty acid concentration (FFA efflux, ×10 mM) in the culture medium on the 10th day (day 12) after the initiation of the differentiation induction in the case of loading no AIM according to the schedule (a) (None), the case of loading AIM according to the schedule (f) (AIM), and the case of loading the FAS inhibitor according to the schedule (f) (C75), respectively.

[3] = target: T1, CD36 (Mus musculus, UniProt Q08857); test: Internalization of AIM into 3T3-L1 adipocytes with or without CD36 neutralizing antibody; format: cell-based
T1 construct: endogenous in cells; host or cells: differentiated 3T3-L1 adipocytes
T1 sequence (Q08857 whole entry): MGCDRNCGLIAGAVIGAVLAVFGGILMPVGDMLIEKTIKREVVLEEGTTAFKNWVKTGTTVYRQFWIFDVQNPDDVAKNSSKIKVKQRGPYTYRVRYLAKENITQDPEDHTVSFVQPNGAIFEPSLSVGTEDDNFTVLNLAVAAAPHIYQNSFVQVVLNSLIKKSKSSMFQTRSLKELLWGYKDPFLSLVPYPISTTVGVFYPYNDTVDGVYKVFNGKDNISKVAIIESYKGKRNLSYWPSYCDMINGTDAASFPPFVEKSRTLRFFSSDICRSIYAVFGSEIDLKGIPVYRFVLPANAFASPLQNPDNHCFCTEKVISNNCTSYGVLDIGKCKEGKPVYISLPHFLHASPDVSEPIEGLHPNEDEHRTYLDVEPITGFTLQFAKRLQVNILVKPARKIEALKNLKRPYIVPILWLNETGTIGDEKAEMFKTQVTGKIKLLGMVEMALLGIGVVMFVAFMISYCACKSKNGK
Method: Further, in order to confirm that AIM is internalized via CD36, a neutralizing antibody which inhibited the binding of a ligand to CD36 was simultaneously loaded when the 3T3-L1 adipocyte differentiated by the above-mentioned differentiation induction was loaded with AIM. Subsequently, the cultured 3T3-L1 adipocytes were collected, and stained using an anti-AIM antibody. The 3T3-L1 adipocytes loaded with AIM alone without loading the neutralizing antibody against CD36 were cultured and stained in the same manner as described above.

[4] = Stability of AIM functions (drying and redissolution, acidic condition); format: physicochemical
[5] = mouse AIM, schedule (e), compared with schedule (a)

B1: AIM: apoptosis inhibitor of macrophage, secretory protein with three SRCR domains; recombinant mouse and human AIM in Example 2, mouse AIM in Examples 3-16 (protein)
chain: ESPTKVQLVGGAHRCEGRVEVEHNGQWGTVCDDGWDRRDVAVVCRELNCGAVIQTPRGASYQPPASEQRVLIQGVDCNGTEDTLAQCELNYYVFDCSHEEDAGAQCENPDSDLLFIPEDVRLVDGPGHCQGRVEVLHQSQWSTVCKAGWNLQVSKVVCRQLGCGRALLTYGSCNKNTQGKGPIWMGKMSCSGQEANLRSCLLSRLENNCTHGEDTWMECEDPFELKLVGGDTPCSGRLEVLHKGSWGSVCDDNWGEKEDQVVCKQLGCGKSLHPSPKTRKIYGPGAGRIWLDDVNCSGKEQSLEFCRHRLWGYHDCTHKEDVEVICTDFDV
increase of the number of dead cells due to the loading of AIM ([1]; 3T3-L1 cells loaded with AIM): not observed
differentiation of the 3T3-L1 cells to the mature adipocytes ([1]; AIM continuously loaded day -2 to day 12, data not shown): completely inhibited
differentiation of the 3T3-L1 cells ([1]; mouse or human rAIM 5 μg/mL, schedule (b): day 2 to day 12, stained day 12): almost completely inhibited
differentiation of the 3T3-L1 cell ([1]; mouse or human rAIM 5 μg/mL, schedule (d): early phase of differentiation induction only (day 2 to day 4), stained day 12): almost completely inhibited
differentiation of the 3T3-L1 cells to the mature adipocytes ([1]; schedule (c): AIM only before differentiation induction (day -2 to day 2)): not inhibited
concentration of free fatty acid in the culture supernatant [2, 5]: remarkably increased
concentration of glycerol in the culture supernatant [2, 5]: remarkably increased
diameter of lipid droplets contained in adipocytes, relative to schedule (a) ([2]; mouse AIM, schedule (e): day 6 to day 12, schedule (a) without AIM defined as 100%): about 25%
number of the cells having lipid droplets ([2]; mouse AIM, schedule (e): day 6 to day 12 after differentiation, compared with schedule (a) without AIM): remarkably decreased
internalization of AIM into the cells ([3]; neutralizing antibody against CD36 loaded simultaneously): not observed
internalization of AIM into the cells ([3]; neutralizing antibody against CD36 not loaded): had been internalized into the cells
functions of AIM after drying and redissolution ([4]; drying such as lyophilization, redissolution): not lost
functions of AIM under an acidic condition ([4]; pH of about 2 to 3): does not lose its functions

B2: mouse AIM: protein consisting of the amino acid sequence shown in SEQ ID NO: 5; recombinant, purified from HEK293T culture supernatant (protein)
chain: MAPLFNLMLAILSIFVGSCFSESPTKVQLVGGAHRCEGRVEVEHNGQWGTVCDDGWDRRDVAVVCRELNCGAVIQTPRGASYQPPASEQRVLIQGVDCNGTEDTLAQCELNYYVFDCSHEEDAGAQCENPDSDLLFIPEDVRLVDGPGHCQGRVEVLHQSQWSTVCKAGWNLQVSKVVCRQLGCGRALLTYGSCNKNTQGKGPIWMGKMSCSGQEANLRSCLLSRLENNCTHGEDTWMECEDPFELKLVGGDTPCSGRLEVLHKGSWGSVCDDNWGEKEDQVVCKQLGCGKSLHPSPKTRKIYGPGAGRIWLDDVNCSGKEQSLEFCRHRLWGYHDCTHKEDVEVICTDFDV
modifications: mouse
notes: recombinant, purified from HEK293T culture supernatant
differentiation of 3T3-L1 cells derived from mice / differentiation inhibitory function ([1]; mouse AIM and human AIM compared, in vitro): inhibited; also recorded: similarly exerted
lipolysis induction function in adipocytes derived from mice ([2]; mouse AIM and human AIM compared, same range of concentrations in vitro): similarly exerted
